The labels stand for the following.
B1: H35/L0 (antibody, human IgG1, kappa, V domains shown)
VH: QVTLKESGPVLVKPTETLTLTCTVSGFSLSRFGVDWVRQAPGKGLEWMGVIWGGGSTNYNSALKSRLTISKDNSKSQVVLTMTNMDPVDTATYYCAGEGSKYGAWFAYWGQGTLVTVSS
VL: DVVMTQSPLSLPVTLGQPASISCRSSQNIVHTNGNTYLEWYQQKPGKAPELLIYKVSNRFSGVPDRFSGSGSGTDFTLKISRVEAEDVGVYYCFQGSHIPFTFGQGTKLEIKR
B2: H37/L0 (antibody, human IgG1, kappa, V domains shown)
VH: B1 VH with R31S, S61R
VL: B1 VL
B3: H46/L28 (antibody, human IgG1, kappa)
heavy: not shown
light: DVVMTQSPLSLPVTLGQPASISCRSSQNIVHTNGNTYLEWYQQKPGKAPKLLIYKVSNRFSGVPDRFSGSGSGTDFTLKISRVEAEDVGVYYCFQGSHIPFTFGQGTKLEIKRTVAAPSVFIFPPSDEQLKSGTASVVCLLNNFYPREAKVQWKVDNALQSGNSQESVTEQDSKDSTYSLSSTLTLSKADYEKHKVYACEVTHQGLSSPVTKSFNRGEC
B4: H46/L37 (antibody, human IgG1, kappa)
heavy: not shown
light: B3 light with Q17R, Q27R, Q105R
B5: H46/L31 (antibody, human IgG1, kappa)
heavy: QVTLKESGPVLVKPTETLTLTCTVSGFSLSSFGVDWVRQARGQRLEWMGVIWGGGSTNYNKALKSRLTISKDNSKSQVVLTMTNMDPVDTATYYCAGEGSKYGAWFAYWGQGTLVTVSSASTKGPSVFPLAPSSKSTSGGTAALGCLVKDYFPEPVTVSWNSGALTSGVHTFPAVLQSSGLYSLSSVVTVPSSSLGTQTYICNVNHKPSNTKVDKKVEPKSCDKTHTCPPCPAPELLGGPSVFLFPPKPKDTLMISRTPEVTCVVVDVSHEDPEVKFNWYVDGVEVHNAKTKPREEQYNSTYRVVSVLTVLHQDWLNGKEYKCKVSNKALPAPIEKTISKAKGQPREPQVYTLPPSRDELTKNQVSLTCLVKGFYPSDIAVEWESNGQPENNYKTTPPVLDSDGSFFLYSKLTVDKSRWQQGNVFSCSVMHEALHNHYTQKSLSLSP
light: B3 light with Q27R
B6: H47/L11 (antibody, human IgG1, kappa)
heavy: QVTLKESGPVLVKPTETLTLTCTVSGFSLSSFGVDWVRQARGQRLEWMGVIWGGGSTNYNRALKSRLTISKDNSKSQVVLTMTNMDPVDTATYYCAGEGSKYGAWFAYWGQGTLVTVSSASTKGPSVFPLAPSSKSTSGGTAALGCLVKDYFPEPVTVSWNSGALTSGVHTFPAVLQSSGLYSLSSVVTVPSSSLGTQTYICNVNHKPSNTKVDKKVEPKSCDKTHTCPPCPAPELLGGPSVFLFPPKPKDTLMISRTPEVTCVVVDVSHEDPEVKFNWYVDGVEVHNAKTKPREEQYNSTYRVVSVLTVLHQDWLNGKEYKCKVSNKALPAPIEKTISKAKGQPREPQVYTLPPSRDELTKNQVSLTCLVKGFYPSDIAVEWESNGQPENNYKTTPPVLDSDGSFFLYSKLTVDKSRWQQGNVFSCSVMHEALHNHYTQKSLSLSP
light: B3 light with R24Q, K50E, L109V, K112E
B7: H36/L27 (antibody, human IgG1, kappa)
heavy: not shown
light: B3 light with Q27R, K50E
B8: H46/L11 (antibody, human IgG1, kappa)
heavy: not shown
light: B3 light with R24Q, K50E, L109V, K112E
B9: H40/L0 (antibody, human IgG1, kappa, V domains shown)
VH: B1 VH with R31K, P41R, K43Q, G44R
VL: B1 VL
B10: H36/L28 (antibody, human IgG1, kappa)
heavy: not shown
light: B3 light
B11: H47/L1 (antibody, human IgG1, kappa)
heavy: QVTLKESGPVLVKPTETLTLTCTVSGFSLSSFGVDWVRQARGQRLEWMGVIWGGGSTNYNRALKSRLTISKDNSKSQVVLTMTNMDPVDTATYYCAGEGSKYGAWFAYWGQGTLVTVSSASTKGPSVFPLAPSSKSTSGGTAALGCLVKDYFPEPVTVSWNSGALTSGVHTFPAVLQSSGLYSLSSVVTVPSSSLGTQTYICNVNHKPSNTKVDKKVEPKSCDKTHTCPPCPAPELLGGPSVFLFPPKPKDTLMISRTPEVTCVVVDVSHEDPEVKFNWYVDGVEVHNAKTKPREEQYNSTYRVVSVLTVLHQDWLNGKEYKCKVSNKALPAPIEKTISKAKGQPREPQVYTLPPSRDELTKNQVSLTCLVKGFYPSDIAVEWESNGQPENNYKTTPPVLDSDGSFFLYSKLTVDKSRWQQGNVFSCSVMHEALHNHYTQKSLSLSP
light: B3 light with R24Q, K50E
B12: H47/L0 (antibody, human IgG1, kappa)
heavy: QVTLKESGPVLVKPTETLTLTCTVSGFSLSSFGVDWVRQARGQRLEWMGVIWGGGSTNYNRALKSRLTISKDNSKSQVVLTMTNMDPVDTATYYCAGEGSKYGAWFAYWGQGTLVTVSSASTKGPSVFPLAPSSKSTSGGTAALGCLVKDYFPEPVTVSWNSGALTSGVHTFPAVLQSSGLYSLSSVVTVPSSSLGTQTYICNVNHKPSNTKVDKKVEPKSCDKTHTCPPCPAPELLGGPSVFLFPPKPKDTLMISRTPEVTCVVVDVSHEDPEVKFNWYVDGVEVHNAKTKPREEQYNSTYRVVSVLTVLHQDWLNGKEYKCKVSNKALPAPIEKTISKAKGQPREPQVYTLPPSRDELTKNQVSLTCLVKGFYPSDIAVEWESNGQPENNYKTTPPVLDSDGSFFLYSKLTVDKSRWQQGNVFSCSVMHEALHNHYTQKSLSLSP
light: B3 light with K50E
B13: H46/L27 (antibody, human IgG1, kappa)
heavy: not shown
light: B3 light with Q27R, K50E
B14: H47/L10 (antibody, human IgG1, kappa)
heavy: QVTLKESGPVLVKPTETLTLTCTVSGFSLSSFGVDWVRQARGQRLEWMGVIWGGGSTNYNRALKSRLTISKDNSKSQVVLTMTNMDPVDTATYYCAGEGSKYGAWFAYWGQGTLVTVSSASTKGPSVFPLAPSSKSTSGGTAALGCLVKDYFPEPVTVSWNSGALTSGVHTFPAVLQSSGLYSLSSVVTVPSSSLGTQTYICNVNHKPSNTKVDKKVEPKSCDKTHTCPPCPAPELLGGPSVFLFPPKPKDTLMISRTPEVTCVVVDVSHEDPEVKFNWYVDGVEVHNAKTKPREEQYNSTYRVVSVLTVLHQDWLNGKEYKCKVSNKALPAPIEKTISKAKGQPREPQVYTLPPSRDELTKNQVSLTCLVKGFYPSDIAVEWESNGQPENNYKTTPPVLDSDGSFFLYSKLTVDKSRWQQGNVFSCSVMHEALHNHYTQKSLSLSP
light: B3 light with K50E, L109V, K112E
B15: H36/L34 (antibody, human IgG1, kappa)
heavy: not shown
light: B3 light with Q17R, Q27R
B16: H36/L35 (antibody, human IgG1, kappa)
heavy: not shown
light: B3 light with Q27R, Q105R
B17: H41/L0 (antibody, human IgG1, kappa, V domains shown)
VH: B1 VH with P41R, K43Q, G44R
VL: B1 VL
B18: H36/L37 (antibody, human IgG1, kappa)
heavy: not shown
light: B3 light with Q17R, Q27R, Q105R
B19: H36/L0 (antibody, human IgG1, kappa)
heavy: not shown
light: B3 light with K50E
B20: H46/L34 (antibody, human IgG1, kappa)
heavy: not shown
light: B3 light with Q17R, Q27R
B21: H46/L35 (antibody, human IgG1, kappa)
heavy: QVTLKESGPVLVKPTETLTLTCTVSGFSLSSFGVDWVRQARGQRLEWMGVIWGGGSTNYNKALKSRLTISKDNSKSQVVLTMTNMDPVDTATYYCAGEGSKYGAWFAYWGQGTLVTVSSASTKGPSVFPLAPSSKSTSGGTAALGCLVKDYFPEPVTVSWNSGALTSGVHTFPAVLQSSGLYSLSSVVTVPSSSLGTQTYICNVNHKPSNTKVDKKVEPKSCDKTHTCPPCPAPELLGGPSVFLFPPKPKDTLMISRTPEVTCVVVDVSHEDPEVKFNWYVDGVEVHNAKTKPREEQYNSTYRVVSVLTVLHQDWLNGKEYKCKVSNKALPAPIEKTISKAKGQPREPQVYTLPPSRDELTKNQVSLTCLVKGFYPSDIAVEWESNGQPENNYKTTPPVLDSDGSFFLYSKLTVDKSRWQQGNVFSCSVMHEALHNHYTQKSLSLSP
light: B3 light with Q27R, Q105R
B22: H46/L10 (antibody, human IgG1, kappa)
heavy: not shown
light: B3 light with K50E, L109V, K112E
B23: H38/L0 (antibody, human IgG1, kappa, V domains shown)
VH: B1 VH with R31S, S61K
VL: B1 VL
B24: H39/L0 (antibody, human IgG1, kappa)
heavy: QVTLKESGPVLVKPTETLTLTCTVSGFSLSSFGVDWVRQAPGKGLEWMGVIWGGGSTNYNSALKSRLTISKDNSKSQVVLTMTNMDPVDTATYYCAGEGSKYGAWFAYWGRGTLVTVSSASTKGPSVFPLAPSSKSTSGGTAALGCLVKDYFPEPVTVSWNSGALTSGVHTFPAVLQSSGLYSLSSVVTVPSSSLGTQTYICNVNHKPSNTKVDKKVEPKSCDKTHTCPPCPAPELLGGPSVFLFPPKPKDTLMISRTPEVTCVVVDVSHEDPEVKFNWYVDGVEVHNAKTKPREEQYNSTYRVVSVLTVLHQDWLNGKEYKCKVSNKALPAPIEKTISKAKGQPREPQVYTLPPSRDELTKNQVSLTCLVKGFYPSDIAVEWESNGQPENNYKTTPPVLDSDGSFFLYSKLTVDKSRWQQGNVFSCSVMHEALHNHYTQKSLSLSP
light: B3 light with K50E
B25: H46/L0 (antibody, human IgG1, kappa)
heavy: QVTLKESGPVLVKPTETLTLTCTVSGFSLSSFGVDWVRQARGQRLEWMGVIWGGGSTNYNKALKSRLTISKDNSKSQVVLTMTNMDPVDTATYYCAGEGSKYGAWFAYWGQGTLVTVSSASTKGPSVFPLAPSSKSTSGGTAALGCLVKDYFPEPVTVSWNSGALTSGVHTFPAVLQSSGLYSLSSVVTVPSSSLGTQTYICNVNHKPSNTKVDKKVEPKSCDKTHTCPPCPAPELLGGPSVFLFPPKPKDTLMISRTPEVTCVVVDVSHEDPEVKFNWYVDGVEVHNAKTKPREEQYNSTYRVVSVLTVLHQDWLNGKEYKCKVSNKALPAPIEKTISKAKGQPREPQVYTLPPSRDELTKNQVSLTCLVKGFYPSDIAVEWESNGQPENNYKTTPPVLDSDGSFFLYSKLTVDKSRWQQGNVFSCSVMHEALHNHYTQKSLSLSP
light: B3 light with K50E
B26: H36/L31 (antibody, human IgG1, kappa)
heavy: not shown
light: B3 light with Q27R
B27: H36/L10 (antibody, human IgG1, kappa)
heavy: not shown
light: B3 light with K50E, L109V, K112E
B28: H47/L28 (antibody, human IgG1, kappa)
heavy: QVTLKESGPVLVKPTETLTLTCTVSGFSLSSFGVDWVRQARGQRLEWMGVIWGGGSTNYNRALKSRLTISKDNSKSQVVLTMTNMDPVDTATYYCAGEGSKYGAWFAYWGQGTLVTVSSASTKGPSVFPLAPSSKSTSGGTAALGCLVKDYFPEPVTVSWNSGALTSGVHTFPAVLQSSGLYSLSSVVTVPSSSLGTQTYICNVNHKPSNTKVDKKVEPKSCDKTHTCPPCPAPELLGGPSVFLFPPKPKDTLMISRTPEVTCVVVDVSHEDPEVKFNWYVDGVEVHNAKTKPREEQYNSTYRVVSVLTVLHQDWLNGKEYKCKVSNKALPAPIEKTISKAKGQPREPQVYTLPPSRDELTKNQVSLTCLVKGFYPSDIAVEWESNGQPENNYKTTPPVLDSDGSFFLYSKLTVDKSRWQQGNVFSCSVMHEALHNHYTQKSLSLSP
light: B3 light
B29: H36/L1 (antibody, human IgG1, kappa)
heavy: not shown
light: B3 light with R24Q, K50E
B30: H47/L27 (antibody, human IgG1, kappa)
heavy: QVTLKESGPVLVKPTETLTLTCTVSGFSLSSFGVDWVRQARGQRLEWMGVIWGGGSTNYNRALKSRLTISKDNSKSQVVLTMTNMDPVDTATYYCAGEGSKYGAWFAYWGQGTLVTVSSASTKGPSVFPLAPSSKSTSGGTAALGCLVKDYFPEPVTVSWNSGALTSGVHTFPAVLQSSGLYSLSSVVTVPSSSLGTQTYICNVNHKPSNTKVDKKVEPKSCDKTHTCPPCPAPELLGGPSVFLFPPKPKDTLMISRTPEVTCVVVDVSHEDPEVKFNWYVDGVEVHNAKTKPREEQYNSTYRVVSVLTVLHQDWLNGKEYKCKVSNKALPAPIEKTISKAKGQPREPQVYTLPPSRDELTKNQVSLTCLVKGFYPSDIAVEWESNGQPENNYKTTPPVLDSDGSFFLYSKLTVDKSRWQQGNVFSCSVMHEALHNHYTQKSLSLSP
light: B3 light with Q27R, K50E
B31: H46/L1 (antibody, human IgG1, kappa)
heavy: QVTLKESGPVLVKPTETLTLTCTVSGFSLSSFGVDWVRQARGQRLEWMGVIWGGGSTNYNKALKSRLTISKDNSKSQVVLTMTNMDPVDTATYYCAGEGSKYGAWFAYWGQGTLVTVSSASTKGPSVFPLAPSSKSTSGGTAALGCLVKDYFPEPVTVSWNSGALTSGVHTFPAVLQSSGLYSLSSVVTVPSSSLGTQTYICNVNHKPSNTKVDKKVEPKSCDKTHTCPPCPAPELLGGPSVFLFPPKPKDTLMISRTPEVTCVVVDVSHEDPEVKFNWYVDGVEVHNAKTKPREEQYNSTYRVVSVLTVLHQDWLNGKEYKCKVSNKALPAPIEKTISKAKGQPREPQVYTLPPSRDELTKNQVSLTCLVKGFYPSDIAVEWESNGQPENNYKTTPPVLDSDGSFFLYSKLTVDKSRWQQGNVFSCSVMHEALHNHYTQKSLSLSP
light: B3 light with R24Q, K50E
B32: H36/L11 (antibody, human IgG1, kappa)
heavy: not shown
light: B3 light with R24Q, K50E, L109V, K112E

32 molecules from US20120121587A1 (Chugai, published 2012) can be followed below.

Changes are numbered by the printed parent chain.

The target of this assay is T1, Human recombinant AXL-FND1 (GST-FND1), from pET-41b(+) (human, UniProt P30530 225-331).
T1 construct: Expressed in E. coli, purified on Glutathione Sepharose; analyte in all Biacore measurements; GST put first by the usual layout of pET-41; not shown: GST-tag of vector pET-41b(+) (Novagen)
T1 sequence (looked up): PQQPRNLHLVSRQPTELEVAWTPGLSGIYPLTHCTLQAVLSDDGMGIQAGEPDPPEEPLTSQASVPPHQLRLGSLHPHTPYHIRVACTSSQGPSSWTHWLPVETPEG
In words: SPR (Biacore T100): antibody captured on Protein A, GST-FND1 as analyte. An outline of the steps: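 Antibodies (1 μg/mL) were captured for 2 min on a Protein A CM5 chip. GST-FND1 (0.5 and 2.0 μg/mL) in HBS-EP+ was flowed at 30 μL/min with 2 min association and 2 min dissociation at 25° C. ka and kd were fitted from sensorgrams and Kd was calculated from them.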
As usually defined, the Kd is the constant that tells how readily two partners part at equilibrium. As to B1, the dissociation constant (Kd) is 3.65 nM.
As to B2, the equilibrium dissociation constant (Kd) is 2.92 nM.
In the case of B3 it was 1.86 nM; in that of B4, 2.3 nM; in that of B5, 1.9 nM.
In the case of B6 it was 1.83 nM.
On to B7, for which the Kd was 1.94 nM.
In the case of B8 it was 1.8 nM.
As to B9, the equilibrium dissociation constant (Kd) is 3.51 nM.
As for B10, the Kd turned out to be 1.95 nM.
In the case of B11 it was 1.89 nM; in that of B12, 1.84 nM.
In the case of B13 it was 1.9 nM; in that of B14, 1.89 nM.
In the case of B15 it was 2.01 nM; in that of B16, 1.94 nM.
For B17, the Kd amounted to 2.35 nM.
Consider B18, for which the Kd worked out at 2.2 nM.
Then B19, with 1.96 nM; and B20, with 2.22 nM; and B21, with 2.04 nM.
Consider B22, for which the Kd came out at 1.88 nM.
In the case of B23 it was 2.92 nM; in that of B24, 3.43 nM.
In the case of B25 it was 1.87 nM.
In the case of B26 it was 1.67 nM; in that of B27, 1.87 nM; in that of B28, 1.52 nM.
Turning to B29, the dissociation constant Kd was found to be 2.03 nM.
As to B30, the equilibrium dissociation constant (Kd) was 1.6 nM.
Then B31, with 1.84 nM; and B32, with 2.08 nM.
